Assay results reported in paper PMC3461514 (The Journal of Cell Biology, 2012).

B1: HEG1 cytoplasmic tail model protein (residues 1,274-1,381) (domain or fragment, human, UniProt Q9ULI3 1274-1381, looked up)
chain: RKNKNDISKLIFKSGDFQMSPYAEYPKNPRSQEWGREAIEMHENGSTKNLLQMTDVYYSPTSVRNPELERNGLYPAYTGLPGSRHSCIFPGQYNPSFISDESRRRDYF

Experiments:
[1] = target: KRIT1 FERM domain, KRIT1(417-736) (human, UniProt O00522 417-736); experiment: ITC
[2] = target: KRIT1(L717,721A) FERM protein (human, UniProt O00522 420-734, L717A | L721A); experiment: ITC
[3] = target: GST-KRIT1 FERM (human, UniProt O00522 420-734); experiment: pull-down
Sequence of GST-KRIT1 FERM (O00522 420-734): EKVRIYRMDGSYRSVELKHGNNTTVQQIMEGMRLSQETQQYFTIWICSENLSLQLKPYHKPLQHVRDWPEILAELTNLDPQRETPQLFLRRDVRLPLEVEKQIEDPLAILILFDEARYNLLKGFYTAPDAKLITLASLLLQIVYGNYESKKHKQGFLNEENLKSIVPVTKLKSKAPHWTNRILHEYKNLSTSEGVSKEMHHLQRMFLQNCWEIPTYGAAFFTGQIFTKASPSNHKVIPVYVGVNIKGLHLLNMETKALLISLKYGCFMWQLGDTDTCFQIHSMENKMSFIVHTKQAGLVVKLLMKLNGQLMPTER

Sequence of KRIT1(L717,721A) FERM protein (O00522 420-734 L717A/L721A): as the sequence (O00522 420-734) above, with L298A, L302A counted along it
Sequence of KRIT1 FERM domain, KRIT1(417-736) (O00522 417-736): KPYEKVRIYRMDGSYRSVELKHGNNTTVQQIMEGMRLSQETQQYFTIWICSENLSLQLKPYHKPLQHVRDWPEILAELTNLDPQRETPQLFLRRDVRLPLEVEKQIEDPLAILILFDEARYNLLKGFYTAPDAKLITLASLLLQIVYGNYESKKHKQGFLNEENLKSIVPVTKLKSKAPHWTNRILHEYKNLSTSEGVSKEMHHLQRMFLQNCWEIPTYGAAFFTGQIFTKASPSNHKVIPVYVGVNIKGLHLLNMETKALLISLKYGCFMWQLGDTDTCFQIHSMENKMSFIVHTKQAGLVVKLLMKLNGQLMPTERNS

Binder	stoichiometry N [1]	fold reduction in affinity against wild type [2]	binding result [3]
SRHSCIFPGQYNPSFISDESRRRDYF (peptide, UniProt Q9ULI3 1356-1381, looked up) [recombinant human HEG1 C26 peptide (residues 1,356-1,381)]	1.01	> 100 fold	
B1			binds
